{"source": "paper PMC3294125", "test_in_all_cases": "kinetics", "key": {"Asp132": {"target": "Asp132 (UniProt position 132, HIGAPDMAFPR)", "details": "Continuous catalytic turnover; cited from earlier work"}, "Cys139": {"target": "Cys139 (UniProt position 139, AFPRMCNLSYW)", "details": "Continuous catalytic turnover; cited from earlier work"}, "Asp26": {"target": "Asp26 (UniProt position 26, FMSTNDKDIGV)", "details": "Continuous catalytic turnover"}, "Asp139": {"target": "Asp139 (UniProt position 139, AFPRMDNLSYW)", "details": "Continuous catalytic turnover; cited from earlier work"}}, "data": [{"substance": "Cytochrome c oxidase (aa3-type), subunit I, in subunit III-depleted enzyme [WT III (−)] (Rhodobacter sphaeroides)", "values": [{"measurement": "pKa", "setting": "Asp132", "value": "7.0–7.3"}]}, {"substance": "Cytochrome c oxidase (aa3-type), subunit I N139C-D132N, subunit III-depleted (Rhodobacter sphaeroides; N139C;D132N)", "values": [{"measurement": "pKa", "setting": "Cys139", "value": "8.0 (7.9–8.1)"}]}, {"substance": "Cytochrome c oxidase (aa3-type), subunit I H26D-D132A, subunit III-depleted (Rhodobacter sphaeroides; H26D;D132A)", "values": [{"measurement": "pKa", "setting": "Asp26", "value": "7.0 (6.9–7.1)"}]}, {"substance": "Cytochrome c oxidase (aa3-type), subunit I N139D-D132N, subunit III-depleted (Rhodobacter sphaeroides; N139D;D132N)", "values": [{"measurement": "pKa", "setting": "Asp139", "value": "7.7 (7.5–7.9)"}]}]}
